Data: PMC7986633 (Angewandte Chemie (International Ed. in English), 2021)

B1: ECSITCTD (C‐terminal fragment of ECSIT, residues 248–431), purified (domain or fragment)
chain: PLPKDSTGAADPPQPHIVGIQSPDQQAALARHNPARPVFVEGPFSLWLRNKCVYYHILRADLLPPEEREVEETPEEWNLYYPMQLDLEYVRSGWDNYEFDINEVEEGPVFAMCMAGAHDQATMAKWIQGLQETNPTLAQIPVVFRLAGSTRELQTSSAGLEEPPLPEDHQEEDDNLQRQQQGQS
B2: ACAD9 (residues 38–621), recombinant, purified (enzyme)
chain: AFAKELFLGKIKKKEVFPFPEVSQDELNEINQFLGPVEKFFTEEVDSRKIDQEGKIPDETLEKLKSLGLFGLQVPEEYGGLGFSNTMYSRLGEIISMDGSITVTLAAHQAIGLKGIILAGTEEQKAKYLPKLASGEHIAAFCLTEPASGSDAASIRSRATLSEDKKHYILNGSKVWITNGGLANIFTVFAKTEVVDSDGSVKDKITAFIVERDFGGVTNGKPEDKLGIRGSNTCEVHFENTKIPVENILGEVGDGFKVAMNILNSGRFSMGSVVAGLLKRLIEMTAEYACTRKQFNKRLSEFGLIQEKFALMAQKAYVMESMTYLTAGMLDQPGFPDCSIEAAMVKVFSSEAAWQCVSEALQILGGLGYTRDYPYERILRDTRILLIFEGTNEILRMYIALTGLQHAGRILTTRIHELKQAKVSTVMDTVGRRLRDSLGRTVDLGLTGNHGVVHPSLADSANKFEENTYCFGRTVETLLLRFGKTIMEEQLVLKRVANILINLYGMTAVLSRASRSIRIGLRNHDHEVLLANTFCVEAYLQNLFSLSQLDKYAPENLDEQIKKVSQQILEKRAYICAHPLDRTC

Assays:
SEC-MALS + other: SAXS = target: the molecule itself; assay: SEC-MALS + other: SAXS
native MS = target: the molecule itself; assay: native MS

Row | Protein | stoichiometry N (SEC-MALS + other: SAXS) | stoichiometry N (native MS)
1 | B1 | 2 | ≥ 4
2 | B2 | – | 2
